This is an account of results in article PMC3791854.

The assay addresses HIV Env on CEM-Env cells (HIV, strain not stated).

As for “CD4-CD28-CD3ζ chimeric receptor (from UniProt P01730 26-396)”, the IFNγ in the culture of CEM-Env + CD4-dTc came to 838 pg/mL, the IL2 in the culture of CEM-Env + CD4-dTc worked out at 318 pg/mL and the TNFα in the culture of CEM-Env + CD4-dTc turned out to be 249 pg/mL.
